Publication PMC11574045, “A cofactor-induced repressive type of transcription factor condensation can be induced by synthetic peptides to suppress tumorigenesis” (The EMBO Journal, 2024)

B1: ATF3 (protein, UniProt P18847 1-181, looked up)
Cyclic AMP-dependent …: MMLQHPGQVSASEVSASAIVPCLSPPGSLVFEDFANLTPFVKEELRFAIQNKHLCHRMSSALESVTVSDRPLGVSITKAEVAPEEDERKKRRRERNKIAAAKCRNKKKEKTECLQKESEKLESVNAELKAQIEELKNEKQHLIYMLNLHRPTCIVRAQNGRTPEDERNLFIQQIKEGTLQS
B2: ATF2/CRE-BP (protein, UniProt P15336 1-505, looked up)
Cyclic AMP-dependent …: MKFKLHVNSARQYKDLWNMSDDKPFLCTAPGCGQRFTNEDHLAVHKHKHEMTLKFGPARNDSVIVADQTPTPTRFLKNCEEVGLFNELASPFENEFKKASEDDIKKMPLDLSPLATPIIRSKIEEPSVVETTHQDSPLPHPESTTSDEKEVPLAQTAQPTSAIVRPASLQVPNVLLTSSDSSVIIQQAVPSPTSSTVITQAPSSNRPIVPVPGPFPLLLHLPNGQTMPVAIPASITSSNVHVPAAVPLVRPVTMVPSVPGIPGPSSPQPVQSEAKMRLKAALTQQHPPVTNGDTVKGHGSGLVRTQSEESRPQSLQQPATSTTETPASPAHTTPQTQSTSGRRRRAANEDPDEKRRKFLERNRAAASRCRQKRKVWVQSLEKKAEDLSSLNGQLQSEVTLLRNEVAQLKQLLLAHKDCPVTAMQKKSGYHTADKDDSSEDISVPSSPHTEAIQHSSVSTSNGVSSTSKAEAVATSVLTQMADQSTEPALSQIVMAPSSQSQPSGS
B3: NKX2-8 (protein, UniProt O15522 1-239, looked up)
Homeobox protein Nkx-2.8: MATSGRLSFTVRSLLDLPEQDAQHLPRREPEPRAPQPDPCAAWLDSERGHYPSSDESSLETSPPDSSQRPSARPASPGSDAEKRKKRRVLFSKAQTLELERRFRQQRYLSAPEREQLASLLRLTPTQVKIWFQNHRYKLKRARAPGAAESPDLAASAELHAAPGLLRRVVVPVLVRDGQPCGGGGGGEVGTAAAQEKCGAPPAAACPLPGYPAFGPGSALGLFPAYQHLASPALVSWNW
B4: NKX2-6 (protein, UniProt A6NCS4 1-301, looked up)
Homeobox protein Nkx-2.6: MLLSPVTSTPFSVKDILRLERERSCPAASPHPRVRKSPENFQYLRMDAEPRGSEVHNAGGGGGDRKLDGSEPPGGPCEAVLEMDAERMGEPQPGLNAASPLGGGTRVPERGVGNSGDSVRGGRSEQPKARQRRKPRVLFSQAQVLALERRFKQQRYLSAPEREHLASALQLTSTQVKIWFQNRRYKCKRQRQDKSLELAGHPLTPRRVAVPVLVRDGKPCLGPGPGAPAFPSPYSAAVSPYSCYGGYSGAPYGAGYGTCYAGAPSGPAPHTPLASAGFGHGGQNATPQGHLAATLQGVRAW
B5: NR0B2/SHP (protein, UniProt Q15466 1-257, looked up)
Nuclear receptor subfamily 0 …: MSTSQPGACPCQGAASRPAILYALLSSSLKAVPRPRSRCLCRQHRPVQLCAPHRTCREALDVLAKTVAFLRNLPSFWQLPPQDQRRLLQGCWGPLFLLGLAQDAVTFEVAEAPVPSILKKILLEEPSSSGGSGQLPDRPQPSLAAVQWLQCCLESFWSLELSPKEYACLKGTILFNPDVPGLQAASHIGHLQQEAHWVLCEVLEPWCPAAQGRLTRVLLTASTLKSIPTSLLGDLFFRPIIGDVDIAGLLGDMLLLR
B6: NKX6-3 (protein, UniProt A6NJ46 1-265, looked up)
Homeobox protein Nkx-6.3: MESNLQGTFLLNNTPLAQFPEMKAPVCQYSVQNSFYKLSPPGLGPQLAAGTPHGITDILSRPVAAPNNSLLSGYPHVAGFGGLSSQGVYYSPQVGNFSKAGNEYPTRTRNCWADTGQDWRGGRQCSNTPDPLSDSIHKKKHTRPTFTGHQIFALEKTFEQTKYLAGPERARLAYSLGMTESQVKVWFQNRRTKWRKKSALEPSSSTPRAPGGAGAGAGGDRAPSENEDDEYNKPLDPDSDDEKIRLLLRKHRAAFSVLSLGAHSV
B7: NFYB (protein, UniProt P25208 1-207, looked up)
Nuclear transcription factor …: MTMDGDSSTTDASQLGISADYIGGSHYVIQPHDDTEDSMNDHEDTNGSKESFREQDIYLPIANVARIMKNAIPQTGKIAKDAKECVQECVSEFISFITSEASERCHQEKRKTINGEDILFAMSTLGFDSYVEPLKLYLQKFREAMKGEKGIGGAVTATDGLSEELTEEAFTNQLPAGLITTDGQQQNVMVYTTSYQQISGVQQIQFS
B8: NF-YB (protein, UniProt P25208 1-207, looked up)
Nuclear transcription factor …: B7 Nuclear transcription factor …
B9: NKX2-2 (protein, UniProt O95096 1-273, looked up)
Homeobox protein Nkx-2.2: MSLTNTKTGFSVKDILDLPDTNDEEGSVAEGPEEENEGPEPAKRAGPLGQGALDAVQSLPLKNPFYDSSDNPYTRWLASTEGLQYSLHGLAAGAPPQDSSSKSPEPSADESPDNDKETPGGGGDAGKKRKRRVLFSKAQTYELERRFRQQRYLSAPEREHLASLIRLTPTQVKIWFQNHRYKMKRARAEKGMEVTPLPSPRRVAVPVLVRDGKPCHALKAQDLAAATFQAGIPFSAYSAQSLQHMQYNAQYSSASTPQYPTAHPLVQAQQWTW
B10: NKX6-2 (protein, UniProt Q9C056 1-277, looked up)
Homeobox protein Nkx-6.2: MDTNRPGAFVLSSAPLAALHNMAEMKTSLFPYALQGPAGFKAPALGGLGAQLPLGTPHGISDILGRPVGAAGGGLLGGLPRLNGLASSAGVYFGPAAAVARGYPKPLAELPGRPPIFWPGVVQGAPWRDPRLAGPAPAGGVLDKDGKKKHSRPTFSGQQIFALEKTFEQTKYLAGPERARLAYSLGMTESQVKVWFQNRRTKWRKRHAVEMASAKKKQDSDAEKLKVGGSDAEDDDEYNRPLDPNSDDEKITRLLKKHKPSNLALVSPCGGGAGDAL
B11: NPM2 (protein, UniProt Q86SE8 1-214, looked up)
Nucleoplasmin-2: MNLSSASSTEEKAVTTVLWGCELSQERRTWTFRPQLEGKQSCRLLLHTICLGEKAKEEMHRVEILPPANQEDKKMQPVTIASLQASVLPMVSMVGVQLSPPVTFQLRAGSGPVFLSGQERYEASDLTWEEEEEEEGEEEEEEEEDDEDEDADISLEEQSPVKQVKRLVPQKQASVAKKKKLEKEEEEIRASVRDKSPVKKAKATARAKKPGFKK
B12: NKX2.5 (protein, UniProt P52952 1-324, looked up)
Homeobox protein Nkx-2.5: MFPSPALTPTPFSVKDILNLEQQQRSLAAAGELSARLEATLAPSSCMLAAFKPEAYAGPEAAAPGLPELRAELGRAPSPAKCASAFPAAPAFYPRAYSDPDPAKDPRAEKKELCALQKAVELEKTEADNAERPRARRRRKPRVLFSQAQVYELERRFKQQRYLSAPERDQLASVLKLTSTQVKIWFQNRRYKCKRQRQDQTLELVGLPPPPPPPARRIAVPVLVRDGKPCLGDSAPYAPAYGVGLNPYGYNAYPAYPGYGGAACSPGYSCTAAYPAGPSPAQPATAAANNNFVNFGVGDLNAVQSPGIPQSNSGVSTLHGIRAW
B13: NFKBIB (protein, UniProt Q15653 1-356, looked up)
NF-kappa-B inhibitor beta: MAGVACLGKAADADEWCDSGLGSLGPDAAAPGGPGLGAELGPGLSWAPLVFGYVTEDGDTALHLAVIHQHEPFLDFLLGFSAGTEYMDLQNDLGQTALHLAAILGETSTVEKLYAAGAGLCVAERRGHTALHLACRVGAHACARALLQPRPRRPREAPDTYLAQGPDRTPDTNHTPVALYPDSDLEKEEEESEEDWKLQLEAENYEGHTPLHVAVIHKDVEMVRLLRDAGADLDKPEPTCGRSPLHLAVEAQAADVLELLLRAGANPAARMYGGRTPLGSAMLRPNPILARLLRAHGAPEPEGEDEKSGPCSSSSDSDSGDEGDEYDDIVVHSSRSQTRLPPTPASKPLPDDPRPV
B14: NR0B1/DAX1 (protein, UniProt P51843 1-470, looked up)
Nuclear receptor subfamily 0 …: MAGENHQWQGSILYNMLMSAKQTRAAPEAPETRLVDQCWGCSCGDEPGVGREGLLGGRNVALLYRCCFCGKDHPRQGSILYSMLTSAKQTYAAPKAPEATLGPCWGCSCGSDPGVGRAGLPGGRPVALLYRCCFCGEDHPRQGSILYSLLTSSKQTHVAPAAPEARPGGAWWDRSYFAQRPGGKEALPGGRATALLYRCCFCGEDHPQQGSTLYCVPTSTNQAQAAPEERPRAPWWDTSSGALRPVALKSPQVVCEAASAGLLKTLRFVKYLPCFQVLPLDQQLVLVRNCWASLLMLELAQDRLQFETVEVSEPSMLQKILTTRRRETGGNEPLPVPTLQHHLAPPAEARKVPSASQVQAIKCFLSKCWSLNISTKEYAYLKGTVLFNPDVPGLQCVKYIQGLQWGTQQILSEHTRMTHQGPHDRFIELNSTLFLLRFINANVIAELFFRPIIGTVSMDDMMLEMLCTKI
B15: NFX1 (protein, UniProt Q12986 1-1120, looked up)
Transcriptional repressor …: MAEAPPVSGTFKFNTDAAEFIPQEKKNSGLNCGTQRRLDSNRIGRRNYSSPPPCHLSRQVPYDEISAVHQHSYHPSGSKPKSQQTSFQSSPCNKSPKSHGLQNQPWQKLRNEKHHIRVKKAQSLAEQTSDTAGLESSTRSESGTDLREHSPSESEKEVVGADPRGAKPKKATQFVYSYGRGPKVKGKLKCEWSNRTTPKPEDAGPESTKPVGVFHPDSSEASSRKGVLDGYGARRNEQRRYPQKRPPWEVEGARPRPGRNPPKQEGHRHTNAGHRNNMGPIPKDDLNERPAKSTCDSENLAVINKSSRRVDQEKCTVRRQDPQVVSPFSRGKQNHVLKNVETHTGSLIEQLTTEKYECMVCCELVRVTAPVWSCQSCYHVFHLNCIKKWARSPASQADGQSGWRCPACQNVSAHVPNTYTCFCGKVKNPEWSRNEIPHSCGEVCRKKQPGQDCPHSCNLLCHPGPCPPCPAFMTKTCECGRTRHTVRCGQAVSVHCSNPCENILNCGQHQCAELCHGGQCQPCQIILNQVCYCGSTSRDVLCGTDVGKSDGFGDFSCLKICGKDLKCGNHTCSQVCHPQPCQQCPRLPQLVRCCPCGQTPLSQLLELGSSSRKTCMDPVPSCGKVCGKPLPCGSLDFIHTCEKLCHEGDCGPCSRTSVISCRCSFRTKELPCTSLKSEDATFMCDKRCNKKRLCGRHKCNEICCVDKEHKCPLICGRKLRCGLHRCEEPCHRGNCQTCWQASFDELTCHCGASVIYPPVPCGTRPPECTQTCARVHECDHPVYHSCHSEEKCPPCTFLTQKWCMGKHEFRSNIPCHLVDISCGLPCSATLPCGMHKCQRLCHKGECLVDEPCKQPCTTPRADCGHPCMAPCHTSSPCPVTACKAKVELQCECGRRKEMVICSEASSTYQRIAAISMASKITDMQLGGSVEISKLITKKEVHQARLECDEECSALERKKRLAEAFHISEDSDPFNIRSSGSKFSDSLKEDARKDLKFVSDVEKEMETLVEAVNKGKNSKKSHSFPPMNRDHRRIIHDLAQVYGLESVSYDSEPKRNVVVTAIRGKSVCPPTTLTGVLEREMQARPPPPIPHHRHQSDKNPGSSNLQKITKEPIIDYFDVQD

System: HEK293FT cells transfected with TF library
Experiment: Screening of TF condensates based on fluorescent puncta
Type: cell-based
Settings: Figure 1B numerical data; TF library screen, one value per transcriptional factor
Procedure, shortened: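 HEK293FT, PEI transfection of TF library, 60 h; ±glucose 12 h; 4% PFA fix, 0.05% Triton X-100 permeabilization, 5% BSA block; anti-Flag/anti-GAL4 overnight at 4 °C, Alexa 488 secondary 1 h; high-content imaging, 50 fields/well.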

Molecule | Z score of condensed fraction
B1 | -0.2156
B2 | -0.7003
B3 | -0.6353
B4 | -0.7176
B5 | -0.8477
B6 | -0.571
B7 | 0.9401
B8 | 0.001922
B9 | -0.1567
B10 | -0.6325
B11 | 1.0628
B12 | -0.3246
B13 | 1.097
B14 | -0.574
B15 | -0.8733
